Assays:
[1] = test system: HeLa Kyoto; assay: solubility in G1/S (NP-40 vs SDS abundance) (log2 ratio); higher = more soluble; conditions: cell cycle stage: G1/S
[2] = test system: HeLa Kyoto; assay: solubility change mitosis vs G1/S (difference of NP-40 vs SDS log2 ratios) (log2 ratio difference); higher = more soluble in mitosis
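For solubility change mitosis vs G1/S (difference of NP-40 vs SDS log2 ratios) in this document: synchronized HeLa Kyoto cells (double thymidine block for G1/S, nocodazole release for mitosis), protein amounts in NP-40 versus SDS lysates quantified by mass spectrometry, three biological replicates.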
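For solubility in G1/S (NP-40 vs SDS abundance) in this document: HeLa Kyoto cells arrested at G1/S by double thymidine block, proteins quantified by TMT10plex mass spectrometry in mild NP-40 versus SDS extracts, three biological replicates.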

In the case of “MGNLESAEGVPGEPPSVPLLLPPGKMPMPEPCELEERFALVLSSMNLPPDKARLLRQYDNEKKWDLICDQERFQVKNPPHTYIQKLQSFLDPSVTRKKFRRRVQESTKVLRELEISLRTNHIGWVREFLNDENKGLDVLVDYLSFAQCSVMFDFEGLESGDDGAFDKLRSWSRSIEDLQPPSALSAPFTNSLARSARQSVLRYSTLPGRRALKNSRLVSQKDDVHVCILCLRAIMNYQYGFNLVMSHPHAVNEIALSLNNKNPRTKALVLELLAAVCLVRGGHEIILAAFDNFKEVCKELHRFEKLMEYFRNEDSNIDFMVACMQFINIVVHSVEDMNFRVHLQYEFTKLGLEEFLQKSRHTESEKLQVQIQAYLDNVFDVGGLLEDAETKNVALEKVEELEEHVSHLTEKLLDLENENMMRVAELEKQLLQREKELESIKETYENTSHQVHTLRRLIKEKEEAFQRRCHLEPNVRGLESVDSEALARVGPAELSEGMPPSDLDLLAPAPPPEEVLPLPPPPAPPLPPPPPPLPDKCPPAPPLPGAAPSVVLTVGLSAIRIKKPIKTKFRLPVFNWTALKPNQISGTVFSELDDEKILEDLDLDKFEELFKTKAQGPALDLICSKNKTAQKAASKVTLLEANRAKNLAITLRKAGRSAEEICRAIHTFDLQTLPVDFVECLMRFLPTEAEVKLLRQYERERQPLEELAAEDRFMLLFSKVERLTQRMAGMAFLGNFQDNLQMLTPQLNAIIAASASVKSSQKLKQMLEIILALGNYMNSSKRGAVYGFKLQSLDLLLDTKSTDRKMTLLHFIALTVKEKYPDLANFWHELHFVEKAAAVSLENVLLDVKELGRGMELIRRECSIHDNSVLRNFLSTNEGKLDKLQRDAKTAEEAYNAVVRYFGESPKTTPPSVFFPVFVRFIRSYKEAEQENEARKKQEEVMREKQLAQEAKKLDAKTPSQRNKWQQQELIAELRRRQAKEHRPVYEGKDGTIEDIITVLKSVPFTARTAKRGSRFFCDAAHHDESNC [FMNL3]”, the “solubility in G1/S (log2)” value [1] was -0.31 and the “solubility change mitosis (log2)” value [2] was 0.267.
“MTKKKRENLGVALEIDGLEEKLSQCRRDLEAVNSRLHSRELSPEARRSLEKEKNSLMNKASNYEKELKFLRQENRKNMLLSVAIFILLTLVYAYWTM [CCDC167]” was tested, and the “solubility in G1/S (log2)” value [1] was 0.839 and the “solubility change mitosis (log2)” value [2] was 0.231.
For “MAGAGRGAAVSRVQAGPGSPRRARGRQQVQPLGKQRPAPWPGLRSKEKKKVNCKPKNQDEQEIPFRLREIMRSRQEMKNPISNKKRKKAAQVTFRKTLEKEAKGEEPDIAVPKFKQRKGESDGAYIHRMQQEAQHVLFLSKNQAIRQPEVQAAPKEKSEQKKAKKAFQKRRLDKVRRKKEEKAADRLEQELLRDTVKFGEVVLQPPELTARPQRSVSKDQPGRRSQMLRMLLSPGGVSQPLTASLARQRIVEEERERAVQAYRALKQRQQQLHGERPHLTSRKKPEPQL [CCDC137]”, the “solubility in G1/S (log2)” value [1] was -1.04 and the “solubility change mitosis (log2)” value [2] was 0.83.
With ANKRD11 the “solubility in G1/S (log2)” value [1] was -0.497 and the “solubility change mitosis (log2)” value [2] was 0.268.
With “MAVAVGRPSNEELRNLSLSGHVGFDSLPDQLVNKSTSQGFCFNILCVGETGIGKSTLMDTLFNTKFESDPATHNEPGVRLKARSYELQESNVRLKLTIVDTVGFGDQINKDDSYKPIVEYIDAQFEAYLQEELKIKRSLFNYHDTRIHACLYFIAPTGHSLKSLDLVTMKKLDSKVNIIPIIAKADTIAKNELHKFKSKIMSELVSNGVQIYQFPTDEETVAEINATMSVHLPFAVVGSTEEVKIGNKMAKARQYPWGVVQVENENHCDFVKLREMLIRVNMEDLREQTHTRHYELYRRCKLEEMGFKDTDPDSKPFSLQETYEAKRNEFLGELQKKEEEMRQMFVMRVKEKEAELKEAEKELHEKFDLLKRTHQEEKKKVEDKKKELEEEVNNFQKKKAAAQLLQSQAQQSGAQQTKKDKDKKNASFT [SEPT11]” the “solubility in G1/S (log2)” value [1] was -0.0512 and the “solubility change mitosis (log2)” value [2] was 0.12.
“MVMAALSLVAACWGRAAADESVQLPAAPGSSVRARETMVSVTMATSEWIQFFKEAGIPPGPAVNYAVMFVDNRIQKSMLLDLNKEIMNELGVTVVGDIIAILKHAKVVHRQDMCKAATESVPCSPSPLAGEIRRGTSAASRMITNSLNHDSPPSTPPRRPDTSTSKISVTVSNKMAAKSAKATAALARREEESLAVPAKRRRVTAEMEGKYVINMPKGTTPRTRKILEQQQAAKGLHRTSVFDRLGAETKADTTTGSKPTGVFSRLGATPETDEDLAWDSDNDSSSSVLQYAGVLKKLGRGPAKASPQPALTVKAKATSSATTAAAPTLRRLALSSRSGLERKPESLSKVSIIKRLGAAALVPEAQDSQVTSTKSKSSAEVKVTIKRTLVGPRGSSSSEGLGAQMDHAGTVSVFKRLGRRTF [C19ORF47]” was tested, and the “solubility in G1/S (log2)” value [1] was -0.824 and the “solubility change mitosis (log2)” value [2] was 1.04.
